# Reference: PMC6128766 (Nature structural & molecular biology, 2018)
# Target: the molecule itself
# Assay: cryo-EM structure
protein,measurement,value
"TRPV3(Y564A) (natural protein, mouse, UniProt Q8K424 1-791, looked up) MNAHSKEMAPLMGKRTTAPGGNPVVLTEKRPADLTPTKKSAHFFLEIEGFEPNPTVTKTSPPIFSKPMDSNIRQCLSGNCDDMDSPQSPQDDVTETPSNPNSPSANLAKEEQRQKKKRLKKRIFAAVSEGCVEELRELLQDLQDLCRRRRGLDVPDFLMHKLTASDTGKTCLMKALLNINPNTKEIVRILLAFAEENDILDRFINAEYTEEAYEGQTALNIAIERRQGDITAVLIAAGADVNAHAKGVFFNPKYQHEGFYFGETPLALAACTNQPEIVQLLMENEQTDITSQDSRGNNILHALVTVAEDFKTQNDFVKRMYDMILLRSGNWELETMRNNDGLTPLQLAAKMGKAEILKYILSREIKEKPLRSLSRKFTDWAYGPVSSSLYDLTNVDTTTDNSVLEIIVYNTNIDNRHEMLTLEPLHTLLHTKWKKFAKYMFFLSFCFYFFYNITLTLVSYYRPREDEDLPHPLALTHKMSWLQLLGRMFVLIWATCISVKEGIAIFLLRPSDLQSILSDAWFHFVFFVQAVLVILSVFLYLFAYKEYLACLVLAMALGWANMLAYTRGFQSMGMYSVMIQKVILHDVLKFLFVYILFLLGFGVALASLIEKCSKDKKDCSSYGSFSDAVLELFKLTIGLGDLNIQQNSTYPILFLFLLITYVILTFVLLLNMLIALMGETVENVSKESERIWRLQRARTILEFEKMLPEWLRSRFRMGELCKVADEDFRLCLRINEVKWTEWKTHVSFLNEDPGPIRRTADLNKIQDSSRSNSKTTLYAFDELDEFPETSV",binding result,binds
